The nature of this series: yeast display, Sf9 membrane polyspecificity reagent, FACS + sequencing; frameworks hold sequencing errors. In short, it runs like this:
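A synthetic nanobody library was expressed on Saccharomyces cerevisiae BJ5465 by galactose induction for 36–48 hours. The library was stained for 1 hour at 4 °C with 10% biotinylated, detergent-solubilized Sf9 membrane reagent and enriched with streptavidin microbeads before FACS. Low and high (top ~1%) gates were set on anti-HA fluorescence for expression and streptavidin fluorescence for reagent binding, and each polyreactivity label reflects the gate of origin.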
As to “QVQLVESGGGLVQAGGSLRLSCAASGFTFWYNAMGWYRQAPGKERELVAAISKSGGSTYYADSVKGRFTISRDNAKNTVYLQMNILKPEDTAVYYCAARLPYNRYNYWGQGTQVTVSS”, the “polyreactivity (PSR sort gate)” value is recorded as “high polyreactivity”.
To “QVQLVESGGGLVQAGGSLRLSCAASGFTFWYYAMGWYRQAPGKERELVADISTRGGSTYYADSVKGRFTISRDNAKNTVYLQMNSLKPEDTAVYYCAAKYARNLAGDDPYDYWGQGTQVTVSS” belongs “high polyreactivity”.
As to “QVQLVESGGGLVQAGGSLRLSCAASGFTFWYYAMGWYRQAPGKERELVARITSRGADTYADSVKGRFTISRDNAKNTVYLQMNSLKPEDTAVYDCNADIISVSVYYFIVEYDYWGQGTQVTVSS”, the “polyreactivity (PSR sort gate)” value is on record as “low polyreactivity”.
As to “QVQLVESGGGLVQAGGSLRLSCAASGFTFWYYAMGWYRQAPGKERELVATITSGGRTSYADSVKGRFTISRDNAKNTVYLQMNSLKPEDTAVYYCAAVARYTPGYGYWGQGTQVTVSS”, the “polyreactivity (PSR sort gate)” value is on record as “high polyreactivity”.
In the case of “QVQLVESGGGLVQAGGSLRLSCAASGFTFYAYAMGWYRQAPGKERELVAAISRTGGRTYYADSVKGRFTISRDNAKNTVYLQMNSLKPEDTAVYYCNRAGLHSTGYDYWGQGTQVTVSS”, the “polyreactivity (PSR sort gate)” value was “high polyreactivity”.
The value for “QVQLVESGGGLVQAGGSLRLSCAASGFTFYAYAMGWYRQAPGKERELVAAITWSGGRTYYADSVKGRFTISRDNAKNTVYLQMNSLKPEDTAVYYCAKRYWGQARYHTGHDYWGQGTQVTVSS” was “high polyreactivity”.
To “QVQLVESGGGLVQAGGSLRLSCAASGFTFYDKAMGWNRQAPGKERELVAAINCRSGSTYYADSVKGRFTISRDTAKNTVYLQMNSLKPEDTAVYYCASGLVFHYYAPKSYYLRYDYWGQGTQVTVSS” belongs “low polyreactivity”; to “QVQLVESGGGLVQAGGSLRLSCAASGFTFYDYVMGWYRQAPGKERELVASISARTGSTYYADSVKGRFTISRDNAKNTVYLQMNSLQPEDTAVYYCAADDGQYYRTEYDYWGQGTQVTVSS”, “low polyreactivity”; to “QVQLVESGGGLVQAGGSLRLSCAASGFTFYGNAMGWYRQAPGKERELVASISTYYADSVKGRFTISRDNAKNTVYLQMNSLKPEDTAVYYCAATHYDRTFYVIYDYWGQGTQVTVSS”, “low polyreactivity”.
To “QVQLVESGGGLVQAGGSLRLSCAASGFTFYGYAMGRYRQAPGKERELVAAITFRGDRTYYADSVKGRFTISRDNAKNTVYLQMNSLKPEDTAVYYCAAERPSGWYSDLSLYIGRRGYWGQGTQVTVSS” belongs “low polyreactivity”.
For “QVQLVESGGGLVQAGGSLRLSCAASGFTFYGYGMGWYRQAPGKERELVAGISSGGGSTFYADSVKGRFTISRDNAKNTVYLQMNSLKPEDTAVYYCAALHYGGYFSYYPYYYWGQGTQVTVSS”, the “polyreactivity (PSR sort gate)” value was “low polyreactivity”.
Turning to “QVQLVESGGGLVQAGGSLRLSCAASGFTFYHNAMGWYRQAPGKERELVAAISGGGDSTYYADSVKGRFTISRDNAKNTVYLQMNSLKPEDTAVYYCATRRYPEVVNGEYGYWGQGTQVTVSS”, the “polyreactivity (PSR sort gate)” value is listed as “low polyreactivity”.
As to “QVQLVESGGGLVQAGGSLRLSCAASGFTFYHYAMGWYRPAPGKERELVAAITWSGGDTYYADSEKGRFTSSRDNAKNTVYLQMNSLKPEDTAVYYCNADDPPGAPYYDSFDYRGDYWGQGTQRTVSS”, the “polyreactivity (PSR sort gate)” value was “low polyreactivity”.
To “QVQLVESGGGLVQAGGSLRLSCAASGFTFYHYAMGWYRQAPGTERELVASITRSGASTYYADSVKGRFTSSRDNAKNTVYLQMNSLKPEDTAVYYCNKVRYTSSIWTYYYWGQGTQVTVSS” belongs “high polyreactivity”; to “QVQLVESGGGLVQAGGSLRLSCAASGFTFYKNTMGWYRQAPGKERELVAAISSSGSSTYYADSVKGRFTISRDNAKNTVYLQMNSLKPEDTAVYYCAAGRFAYHDDYWGQGTQVTVSS”, “high polyreactivity”.
With “QVQLVESGGGLVQAGGSLRLSCAASGFTFYKNTMGWYRQAPGKVRELVAAISSSGSSTYYADSVKGRFTISRDNAKNTVYLQMNSLKPEDTAVYYCAAGRFAYHDDYWGQGTHVTVSS”, the “polyreactivity (PSR sort gate)” value is listed as “high polyreactivity”.
For “QVQLVESGGGLVQAGGSLRLSCAASGFTFYKYAMGGYRQEPGKERELVATITISGITNYADSVKGRFTISRDNAKNTVYLQMNSLKPEDTAVYYCATVGPWPGEYDYWGQGTQVTVSS”, the “polyreactivity (PSR sort gate)” value is on record as “low polyreactivity”.
With “QVQLVESGGGLVQAGGSLRLSCAASGFTFYKYTMGWYRQAPGKERELVAAISARGGSTYYADSVKGRFTISRDNAKNTVYLQMNSLKPEDTAVYYCAADYWRTYVLGYDYWGQGTQVTVSS”, the “polyreactivity (PSR sort gate)” value is listed as “high polyreactivity”.
The value for “QVQLVESGGGLVQAGGSLRLSCAASGFTFYKYVMGWYRQAPGKERELVAAITTSGGSTYYADSVKGRFTISRDNAKNTVYLQMNSLKPEDTAVYYCNARSLHTSEGDYWGQGTQVTVSS” was “low polyreactivity”; that for “QVQLVESGGGLVQAGGSLRLSCAASGFTFYLYALGWYRQAPGKERELVAAITYSGGSTYYADSVKGRFTISRDNAKNTVYLQMNSLKPEDTAVYYCAADARGKVYWGQGTQVTVSS” was “high polyreactivity”.
Turning to “QVQLVESGGGLVQAGGSLRLSCAASGFTFYLYAMGWYRQAPGKEREFVASISYRGTSTYYADSVKGRCTISRDNAKNTVYLQMNSLKPEDTAFYYCAARPSYYRTGYGYWGQGTQVTVSS”, the “polyreactivity (PSR sort gate)” value was “high polyreactivity”.
On to “QVQLVESGGGLVQAGGSLRLSCAASGFTFYLYSMGWYRQAPGKERELVATITSDGGTNYADSVKGRFSISRDNAKNTVYLQMNSLTPEDTAVYYCNAASRRGSRKQAKYDYWGQGTQVTVSA”, for which the “polyreactivity (PSR sort gate)” value is “low polyreactivity”.
“QVQLVESGGGLVQAGGSLRLSCAASGFTFYPNTMGWYRQAPGKERELVAAISSSGGRTYYSDSVKGRFTISRDNAKNTVYLQMNSLKPEDTAVYYCNAAKWLTSGGLDYWGIGTQVTVSS”: the “polyreactivity (PSR sort gate)” value is listed as “high polyreactivity”.
On to “QVQLVESGGGLVQAGGSLRLSCAASGFTFYPYAMGWYRQAPGKERELVAAIRISGGSTYYADSVKGRFTISRDTAKNTVYLQMNSLKPEDTAVYYCAAKYPYYSSYAYGYWGQGTQVTVSS”, for which the “polyreactivity (PSR sort gate)” value is on record as “high polyreactivity”.
For “QVQLVESGGGLVQAGGSLRLSCAASGFTFYPYAMGWYRQAPGKERELVAGITRGGSTNYADSVKGRFTISRDNAKNTVYLQMNSLKPEDTAVYYCAAKYGPYFRRLDYWGQGTQVTVSS”, the “polyreactivity (PSR sort gate)” value is recorded as “high polyreactivity”.
To “QVQLVESGGGLVQAGGSLRLSCAASGFTFYPYAMGWYRQAPGKERELVASISWSGGSTYYADSVKGRFTISRDNAKNTVYFQMNSLKPEDTAVYYCNAEYWLPYYPDYDFWGQGTQVTVSS” belongs “low polyreactivity”; to “QVQLVESGGGLVQAGGSLRLSCAASGFTFYPYAMGWYRQAPGKERELVATISSGGTTNYADSVKGRFTISRDNAKNTVYLQMNSLKPEDTAVYYCAADYIRLFGPFDYWGQGTQVTVSS”, “low polyreactivity”.
“QVQLVESGGGLVQAGGSLRLSCAASGFTFYPYARGWYRQAPGKERELVAAISNGDSTHYADSVKGRFTISRDNAKNTVYLQMNSLKPQDTAVYYCNAYTRYPFYFVTSKYDYWGQGNQVTVSS”: the “polyreactivity (PSR sort gate)” value is reported as “low polyreactivity”.
To “QVQLVESGGGLVQAGGSLRLSCAASGFTFYPYTMGWYRQAPGKERELVAAISSSGGSTYYADSVKGRFTISRDNAMNTVYLQMNSLKPEDTAVYYCATRSWGPYYYGYNHWGQGSQVTVSS” belongs “high polyreactivity”; to “QVQLVESGGGLVQAGGSLRLSCAASGFTFYQYAMGWYRQAPGKERELVAAISSSGTSTYYADSVKGRFTISRDNAKNTVYLQMNSLKPEDTAVYYCAARRYKLFYWGQGTQVTVSS”, “low polyreactivity”.
For the sequence “QVQLVESGGGLVQAGGSLRLSCAASGFTFYRNAMGWYRQAPGKEWELVAGITRSGGSTYYADSVKGRFTISRDNAKNTVYLQMNSLKPEDTAVYYCNKAYGGDKYSGTYDYWGQGTQVTVSS”, the “polyreactivity (PSR sort gate)” value is listed as “high polyreactivity”.
Turning to “QVQLVESGGGLVQAGGSLRLSCAASGFTFYRNAMGWYRQAPRKERDLVAAISDSGGRTYYADSVKGRFTISRDNAMNTVYLQMNSLIPEDTAVYYCAADTVIWWVEYEYWGQGTQVTVSS”, the “polyreactivity (PSR sort gate)” value was “high polyreactivity”.
To “QVQLVESGGGLVQAGGSLRLSCAASGFTFYRYAMGWYRQAPGKERELVAAITGGGSTYYADSVKGRFTISRDNAKNTVYLQMNSLKPEDTAVYYCNADIRAYTVLTGGYIYDYWGQGTQVTVSS” belongs “high polyreactivity”.
To “QVQLVESGGGLVQAGGSLRLSCAASGFTFYRYAMGWYRQAPGKERELVAAITKSSGRTYYADSVKGRFTISRDNAQITVYLQINSLKPEDTAVYYCNAYYVALPPNMDYWGQGTQVTVSS” belongs “high polyreactivity”.
Take “QVQLVESGGGLVQAGGSLRLSCAASGFTFYRYAMGWYRQAPGKERELVAAITWSGGSTYYADSVKGRFTISRDNAKNTVYLQMNSLKPVDTAVYYCAADIYDGGFDYWGQGTQVTVSS”: the “polyreactivity (PSR sort gate)” value is reported as “low polyreactivity”.
Turning to “QVQLVESGGGLVQAGGSLRLSCAASGFTFYRYAMGWYRQAPGKERELVASIRWGGGSTYYADSVKGRFTISRDNAKNTFYLEMNSLKPEDTAVYYCAAYFGYTVGRYNYWGQGTQVTVSS”, the “polyreactivity (PSR sort gate)” value is given as “high polyreactivity”.
Consider “QVQLVESGGGLVQAGGSLRLSCAASGFTFYRYAMGWYRQAPGKERELVASISWRGGNTYYADSVKGRFTISRDNAKNTVYLQMNSLKPEDTAVYYCAAGRSRIPSLLDYWGQGTQVTVSS”, for which the “polyreactivity (PSR sort gate)” value is listed as “high polyreactivity”.
To “QVQLVESGGGLVQAGGSLRLSCAASGFTFYRYTMGWYIQAPGKERELVAAISARGVSTYYADSVKGRFTISRDIAKNTVYLQMNSLKPEDTAVYYCYVSRYDSWGQGTQVTVSS” belongs “high polyreactivity”; to “QVQLVESGGGLVQAGGSLRLSCAASGFTFYSNAMGWYRQAPGKERELVAAITGRGGRTYYADSVKGRFTISRDNAKNTVYLQMNSLKPEDTAVYYCAAVYHVSTWGGRYYFRQGYDYWGQGTQVTVSS”, “high polyreactivity”.
On to “QVQLVESGGGLVQAGGSLRLSCAASGFTFYSNAMGWYRQAPGKERELVAAITSGGNTNYADSVKGRFTISRDNAKNTVYLQMNSLKPEDTAVYYCAAYPPSQRAEYDFWGQGTQVTVSS”, for which the “polyreactivity (PSR sort gate)” value was “low polyreactivity”.
The value for “QVQLVESGGGLVQAGGSLRLSCAASGFTFYSYAMGWYRQAPGKERELVAAISRSGTTTYYADSVKGRFTISRDNAKNTVYLQMNSLKPEDTAVYYCAARTTSSSLTPSLYYWGQGTQVTVSS” was “high polyreactivity”.

Source of the values: the nanobody polyreactivity screen of Harvey et al. (2022).
